Molecular target: T1, CasEnd-37 (synthetic construct)
T1 chain: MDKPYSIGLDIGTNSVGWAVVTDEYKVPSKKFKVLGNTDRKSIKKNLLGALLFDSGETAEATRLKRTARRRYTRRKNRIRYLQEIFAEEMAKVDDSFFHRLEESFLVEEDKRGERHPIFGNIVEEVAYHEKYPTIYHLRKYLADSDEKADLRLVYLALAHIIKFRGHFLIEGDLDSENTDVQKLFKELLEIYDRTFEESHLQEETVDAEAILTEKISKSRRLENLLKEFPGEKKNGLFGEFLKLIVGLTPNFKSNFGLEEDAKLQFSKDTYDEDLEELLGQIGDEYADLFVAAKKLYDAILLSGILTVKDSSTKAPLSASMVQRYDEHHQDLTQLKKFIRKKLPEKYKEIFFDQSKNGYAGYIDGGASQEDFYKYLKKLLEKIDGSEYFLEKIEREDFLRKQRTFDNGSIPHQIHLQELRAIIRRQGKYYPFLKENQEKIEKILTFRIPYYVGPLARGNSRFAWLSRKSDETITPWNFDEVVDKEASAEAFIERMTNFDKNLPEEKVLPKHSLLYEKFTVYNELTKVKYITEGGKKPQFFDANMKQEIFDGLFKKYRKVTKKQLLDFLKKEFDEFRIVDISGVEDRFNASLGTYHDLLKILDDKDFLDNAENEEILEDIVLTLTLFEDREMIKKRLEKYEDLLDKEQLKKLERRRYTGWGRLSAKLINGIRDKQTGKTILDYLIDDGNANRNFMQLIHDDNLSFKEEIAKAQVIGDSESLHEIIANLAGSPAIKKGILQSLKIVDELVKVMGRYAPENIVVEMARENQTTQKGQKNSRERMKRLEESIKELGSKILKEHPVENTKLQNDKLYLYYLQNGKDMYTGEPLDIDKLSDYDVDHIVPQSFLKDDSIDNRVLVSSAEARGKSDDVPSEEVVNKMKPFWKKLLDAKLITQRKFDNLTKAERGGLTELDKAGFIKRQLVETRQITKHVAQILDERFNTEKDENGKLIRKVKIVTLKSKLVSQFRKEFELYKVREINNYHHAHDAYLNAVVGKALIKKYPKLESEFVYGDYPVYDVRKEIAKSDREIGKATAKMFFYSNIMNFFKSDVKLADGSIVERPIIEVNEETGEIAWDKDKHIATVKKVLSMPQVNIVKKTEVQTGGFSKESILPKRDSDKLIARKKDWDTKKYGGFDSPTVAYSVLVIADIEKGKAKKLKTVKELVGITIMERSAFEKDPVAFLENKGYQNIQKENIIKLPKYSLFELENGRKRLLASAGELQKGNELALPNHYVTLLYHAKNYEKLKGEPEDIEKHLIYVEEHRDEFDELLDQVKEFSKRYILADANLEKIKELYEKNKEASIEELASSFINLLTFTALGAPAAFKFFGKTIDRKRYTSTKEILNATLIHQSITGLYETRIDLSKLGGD
Test: cell_activity; +++; HEK293T; PAM not stated
Summary of the method: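 BFP-to-GFP conversion via reverse transcriptase fusion with each Cas endonuclease plus template RNA: 200 ng of each plasmid nucleofected into 250,000 BFP-expressing HEK293T cells (program DS-150). Percent GFP+ cells by flow cytometry at day 4 measured editing.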

B1: BFP-to-GFP template RNA ; BFP reporter protospacer (ssRNA ; dsDNA)
RNA: GCCGAAGCACUGCACGCCGUGUUUUAGAGCUAGAAAUAGCAAGUUAAAAUAAGGCUAGUCCGUUAUCAACUUGAAAAAGUGGCACCGAGUCGGUGCACCCUGACGUACGGCGUGCAGUGCUU
DNA 1: GCCGAAGCACTGCACGCCGT
DNA 2: ACGGCGTGCAGTGCTTCGGC
In the case of B1, the activity is reported as ≥ 100 % of reference.

Source: US20250092426, “CAS ENDONUCLEASES AND RELATED METHODS” (Flagship Pioneering Innovations VII, LLC, published 2025)
